Biological target: Fes (UniProt P07332)
Test: phosphorylation enrichment, bacterial display (enrichment ratio); higher = better substrate or ligand; peptides without Tyr show the background
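Note: 11-residue human phosphosite peptides and single-mutation variants displayed on the E. coli surface, counted by deep sequencing, each peptide's frequency after selection divided by its frequency in the unselected input library; frequency after pTyr selection over input frequency; kinase dosed for 20-30% of maximal phosphorylation in three min.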

Sequence of Fes (P07332 whole entry, looked up): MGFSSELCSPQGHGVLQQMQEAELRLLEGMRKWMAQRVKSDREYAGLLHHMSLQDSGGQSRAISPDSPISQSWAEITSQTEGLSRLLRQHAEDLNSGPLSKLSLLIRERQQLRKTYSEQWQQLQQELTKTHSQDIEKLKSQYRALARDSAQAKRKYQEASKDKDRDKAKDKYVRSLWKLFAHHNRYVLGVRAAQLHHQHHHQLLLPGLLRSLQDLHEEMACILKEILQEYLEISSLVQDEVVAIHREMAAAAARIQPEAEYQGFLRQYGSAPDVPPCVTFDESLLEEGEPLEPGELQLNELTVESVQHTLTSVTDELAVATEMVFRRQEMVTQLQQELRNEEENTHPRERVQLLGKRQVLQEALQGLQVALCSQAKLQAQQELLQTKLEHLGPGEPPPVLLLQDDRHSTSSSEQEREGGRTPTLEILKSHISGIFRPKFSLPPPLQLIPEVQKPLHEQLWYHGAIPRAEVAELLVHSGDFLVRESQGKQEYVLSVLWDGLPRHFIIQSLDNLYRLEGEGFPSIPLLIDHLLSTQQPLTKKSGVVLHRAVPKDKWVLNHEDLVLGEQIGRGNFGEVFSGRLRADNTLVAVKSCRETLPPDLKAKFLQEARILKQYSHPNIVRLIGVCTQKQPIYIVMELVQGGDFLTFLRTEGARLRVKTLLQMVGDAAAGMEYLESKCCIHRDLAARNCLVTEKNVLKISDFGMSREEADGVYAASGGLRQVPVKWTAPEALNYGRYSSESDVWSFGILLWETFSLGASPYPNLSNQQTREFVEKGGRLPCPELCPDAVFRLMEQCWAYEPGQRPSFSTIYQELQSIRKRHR

Going from ESMNIYLQTSP [NAT1_Y208_T207I] to LQLLGDRPVFS [CHST6_Y358_Y358D_YF], the phosphorylation enrichment falls from 1.05 to 0.795.

Going from HLVLNYGVCIC [JAK2_Y613_V617I] to CKSVHYDLVFL [COL22A1_Y37], the phosphorylation enrichment falls from 2.09 to 1.38.

First: SREALYNEMDP [CACNA1A_Y794]
Second: QSSALYEDHYL [ASS1_Y83_R86H]
The phosphorylation enrichment of the first is higher: 1.24 for the first, 1.18 for the second.

First: YAKSVYWENTL [NUP107_Y296]
Second: SLEKSYELPDG [ACTA1_Y242]
The phosphorylation enrichment of the first is lower: 0.967 for the first, 1.15 for the second.

Going from APGDAYGDAGF [SYP_Y250_YF] to SILAVYSKDNY [PANK2_Y400], the phosphorylation enrichment falls from 0.905 to 0.664.

First: NKEAIYSGYIR [SMCHD1_Y283]
Second: QGLRLYRTHLA [BTK_Y617_P619T]
The phosphorylation enrichment of the first is higher: 0.687 for the first, 0.478 for the second.

Going from DCVRMYELVHR [GLE1_Y135_G130D] to LIHLHYIRRDY [BBS4_Y43_K46R], the phosphorylation enrichment falls from 1.31 to 0.773.

First: ALAHKYQGGGG [HBB_Y146_H147Q]
Second: SSPVLYLSPET [TJP1_Y931_P930L]
The phosphorylation enrichment of the first is lower: 0.58 for the first, 0.833 for the second.

First: LESTLYESSVV [TRPV4_Y91]
Second: EYITRYIDSLK [PSMA7_Y110_A112D]
The phosphorylation enrichment of the first is higher: 2.34 for the first, 0.832 for the second.

First: EEGNPYFSGAR [MCCC2_Y520_S523G_YF]
Second: GIVKAYFVRAR [AIPL1_Y267_YF]
The phosphorylation enrichment of the first is lower: 0.945 for the first, 0.991 for the second.

Going from RETLTYAQAQR [BRD1_Y33] to VRSVDYVLFRS [FAM189B_Y361], the phosphorylation enrichment rises from 0.737 to 0.831.

Compared with SVVVPYEPPGV [TP53_Y220_E224G], IKGIRYLHHRG [GUCY2D_Y656] is lower in phosphorylation enrichment: 0.769 for the first, 0.469 for the second.

First: VNKGGYFSVNL [C3orf33_Y164_S160N]
Second: GEEIKYTLWLS [OTC_Y55_M56T]
The phosphorylation enrichment of the first is lower: 1.05 for the first, 1.4 for the second.

Compared with ILTLKYPIKHG [ACTA1_Y71_E74K], REAAAYPHGRL [AGXT_Y297_L298P] is lower in phosphorylation enrichment: 0.588 for the first, 0.46 for the second.

Compared with RMLRKYQELMS [KRT74_Y425_E424K], FAKSVYWENTL [NUP107_Y296_YF] is higher in phosphorylation enrichment: 0.673 for the first, 1.32 for the second.

First: SIKDKYVTAFY [KCNH2_Y611_L615F]
Second: QSHKVYFQHLL [POR_Y604_V605F]
The phosphorylation enrichment of the first is lower: 0.67 for the first, 1.52 for the second.

TTPGPHRSIYF [MPG_Y71_Y71H] was tested, and the phosphorylation enrichment was 0.577.

Biological target: FGFR3 (UniProt P22607)
Test: as above

Sequence of FGFR3 (P22607 whole entry, looked up): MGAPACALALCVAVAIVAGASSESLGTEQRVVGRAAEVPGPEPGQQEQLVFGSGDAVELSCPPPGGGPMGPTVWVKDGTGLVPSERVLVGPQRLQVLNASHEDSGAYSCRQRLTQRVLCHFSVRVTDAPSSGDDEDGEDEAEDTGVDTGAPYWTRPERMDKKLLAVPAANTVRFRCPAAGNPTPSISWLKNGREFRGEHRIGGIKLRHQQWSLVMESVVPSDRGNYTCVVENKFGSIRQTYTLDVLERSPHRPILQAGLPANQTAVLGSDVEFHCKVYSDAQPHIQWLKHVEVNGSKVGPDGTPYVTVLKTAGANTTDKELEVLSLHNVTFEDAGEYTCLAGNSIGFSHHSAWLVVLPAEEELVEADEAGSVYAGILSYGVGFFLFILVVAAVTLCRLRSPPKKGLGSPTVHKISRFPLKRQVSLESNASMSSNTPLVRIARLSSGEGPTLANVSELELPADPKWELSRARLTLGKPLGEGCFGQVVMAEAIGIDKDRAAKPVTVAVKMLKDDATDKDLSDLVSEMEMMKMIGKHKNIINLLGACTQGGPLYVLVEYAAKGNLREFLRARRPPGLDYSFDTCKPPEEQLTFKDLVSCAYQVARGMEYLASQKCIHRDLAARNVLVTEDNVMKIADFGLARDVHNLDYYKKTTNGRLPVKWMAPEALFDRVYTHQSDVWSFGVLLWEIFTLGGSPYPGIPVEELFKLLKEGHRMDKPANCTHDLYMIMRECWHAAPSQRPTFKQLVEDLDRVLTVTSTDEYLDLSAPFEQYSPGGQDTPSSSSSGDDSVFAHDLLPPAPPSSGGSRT

Going from ESMNIYLQTSP [NAT1_Y208_T207I] to LQLLGDRPVFS [CHST6_Y358_Y358D_YF], the phosphorylation enrichment falls from 0.87 to 0.542.

Going from HLVLNYGVCIC [JAK2_Y613_V617I] to CKSVHYDLVFL [COL22A1_Y37], the phosphorylation enrichment falls from 1.46 to 0.866.

Compared with SREALYNEMDP [CACNA1A_Y794], QSSALYEDHYL [ASS1_Y83_R86H] is lower in phosphorylation enrichment: 0.896 for the first, 0.702 for the second.

Compared with YAKSVYWENTL [NUP107_Y296], SLEKSYELPDG [ACTA1_Y242] is higher in phosphorylation enrichment: 0.619 for the first, 0.707 for the second.

Compared with APGDAYGDAGF [SYP_Y250_YF], SILAVYSKDNY [PANK2_Y400] is higher in phosphorylation enrichment: 0.521 for the first, 0.524 for the second.

First: NKEAIYSGYIR [SMCHD1_Y283]
Second: QGLRLYRTHLA [BTK_Y617_P619T]
The phosphorylation enrichment of the first is higher: 0.526 for the first, 0.365 for the second.

Compared with DCVRMYELVHR [GLE1_Y135_G130D], LIHLHYIRRDY [BBS4_Y43_K46R] is lower in phosphorylation enrichment: 0.831 for the first, 0.759 for the second.

Going from ALAHKYQGGGG [HBB_Y146_H147Q] to SSPVLYLSPET [TJP1_Y931_P930L], the phosphorylation enrichment rises from 0.476 to 0.713.

First: LESTLYESSVV [TRPV4_Y91]
Second: EYITRYIDSLK [PSMA7_Y110_A112D]
The phosphorylation enrichment of the first is higher: 1.47 for the first, 0.572 for the second.

First: EEGNPYFSGAR [MCCC2_Y520_S523G_YF]
Second: GIVKAYFVRAR [AIPL1_Y267_YF]
The phosphorylation enrichment of the first is higher: 0.686 for the first, 0.558 for the second.

Compared with RETLTYAQAQR [BRD1_Y33], VRSVDYVLFRS [FAM189B_Y361] is higher in phosphorylation enrichment: 0.525 for the first, 1.4 for the second.

First: SVVVPYEPPGV [TP53_Y220_E224G]
Second: IKGIRYLHHRG [GUCY2D_Y656]
The phosphorylation enrichment of the first is higher: 0.56 for the first, 0.363 for the second.

Compared with VNKGGYFSVNL [C3orf33_Y164_S160N], GEEIKYTLWLS [OTC_Y55_M56T] is higher in phosphorylation enrichment: 0.603 for the first, 0.882 for the second.

Compared with ILTLKYPIKHG [ACTA1_Y71_E74K], REAAAYPHGRL [AGXT_Y297_L298P] is lower in phosphorylation enrichment: 0.497 for the first, 0.41 for the second.

First: RMLRKYQELMS [KRT74_Y425_E424K]
Second: FAKSVYWENTL [NUP107_Y296_YF]
The phosphorylation enrichment of the first is lower: 0.402 for the first, 0.752 for the second.

Going from SIKDKYVTAFY [KCNH2_Y611_L615F] to QSHKVYFQHLL [POR_Y604_V605F], the phosphorylation enrichment rises from 0.475 to 0.915.

In the case of TTPGPHRSIYF [MPG_Y71_Y71H], the phosphorylation enrichment is reported as 0.526.

System: Fer (mouse)
Test: as above

Compared with ESMNIYLQTSP [NAT1_Y208_T207I], LQLLGDRPVFS [CHST6_Y358_Y358D_YF] is lower in phosphorylation enrichment: 0.635 for the first, 0.378 for the second.

Going from HLVLNYGVCIC [JAK2_Y613_V617I] to CKSVHYDLVFL [COL22A1_Y37], the phosphorylation enrichment rises from 0.67 to 9.46.

First: SREALYNEMDP [CACNA1A_Y794]
Second: QSSALYEDHYL [ASS1_Y83_R86H]
The phosphorylation enrichment of the first is lower: 0.731 for the first, 18.5 for the second.

Going from YAKSVYWENTL [NUP107_Y296] to SLEKSYELPDG [ACTA1_Y242], the phosphorylation enrichment rises from 0.492 to 0.538.

First: APGDAYGDAGF [SYP_Y250_YF]
Second: SILAVYSKDNY [PANK2_Y400]
The phosphorylation enrichment of the first is higher: 0.491 for the first, 0.425 for the second.

Going from NKEAIYSGYIR [SMCHD1_Y283] to QGLRLYRTHLA [BTK_Y617_P619T], the phosphorylation enrichment falls from 3.43 to 0.42.

Going from DCVRMYELVHR [GLE1_Y135_G130D] to LIHLHYIRRDY [BBS4_Y43_K46R], the phosphorylation enrichment falls from 7.12 to 0.41.

First: ALAHKYQGGGG [HBB_Y146_H147Q]
Second: SSPVLYLSPET [TJP1_Y931_P930L]
The phosphorylation enrichment of the first is lower: 0.283 for the first, 0.459 for the second.

First: LESTLYESSVV [TRPV4_Y91]
Second: EYITRYIDSLK [PSMA7_Y110_A112D]
The phosphorylation enrichment of the first is higher: 9.02 for the first, 0.461 for the second.

Going from EEGNPYFSGAR [MCCC2_Y520_S523G_YF] to GIVKAYFVRAR [AIPL1_Y267_YF], the phosphorylation enrichment rises from 0.347 to 0.463.

Compared with RETLTYAQAQR [BRD1_Y33], VRSVDYVLFRS [FAM189B_Y361] is higher in phosphorylation enrichment: 0.42 for the first, 0.544 for the second.

Going from SVVVPYEPPGV [TP53_Y220_E224G] to IKGIRYLHHRG [GUCY2D_Y656], the phosphorylation enrichment falls from 0.498 to 0.432.

First: VNKGGYFSVNL [C3orf33_Y164_S160N]
Second: GEEIKYTLWLS [OTC_Y55_M56T]
The phosphorylation enrichment of the first is lower: 0.395 for the first, 0.712 for the second.

Going from ILTLKYPIKHG [ACTA1_Y71_E74K] to REAAAYPHGRL [AGXT_Y297_L298P], the phosphorylation enrichment falls from 0.413 to 0.192.

First: RMLRKYQELMS [KRT74_Y425_E424K]
Second: FAKSVYWENTL [NUP107_Y296_YF]
The phosphorylation enrichment of the first is higher: 0.522 for the first, 0.418 for the second.

Compared with SIKDKYVTAFY [KCNH2_Y611_L615F], QSHKVYFQHLL [POR_Y604_V605F] is higher in phosphorylation enrichment: 0.401 for the first, 0.698 for the second.

TTPGPHRSIYF [MPG_Y71_Y71H] was tested, and the phosphorylation enrichment was 0.396.

System: c-Src
Test: as above

Going from ESMNIYLQTSP [NAT1_Y208_T207I] to LQLLGDRPVFS [CHST6_Y358_Y358D_YF], the phosphorylation enrichment falls from 1.06 to 0.377.

First: HLVLNYGVCIC [JAK2_Y613_V617I]
Second: CKSVHYDLVFL [COL22A1_Y37]
The phosphorylation enrichment of the first is higher: 0.576 for the first, 0.528 for the second.

Compared with SREALYNEMDP [CACNA1A_Y794], QSSALYEDHYL [ASS1_Y83_R86H] is higher in phosphorylation enrichment: 0.869 for the first, 1.14 for the second.

Going from YAKSVYWENTL [NUP107_Y296] to SLEKSYELPDG [ACTA1_Y242], the phosphorylation enrichment falls from 0.871 to 0.479.

First: APGDAYGDAGF [SYP_Y250_YF]
Second: SILAVYSKDNY [PANK2_Y400]
The phosphorylation enrichment of the first is lower: 0.464 for the first, 1.11 for the second.

First: NKEAIYSGYIR [SMCHD1_Y283]
Second: QGLRLYRTHLA [BTK_Y617_P619T]
The phosphorylation enrichment of the first is higher: 7.96 for the first, 0.312 for the second.

First: DCVRMYELVHR [GLE1_Y135_G130D]
Second: LIHLHYIRRDY [BBS4_Y43_K46R]
The phosphorylation enrichment of the first is higher: 1.3 for the first, 0.388 for the second.

First: ALAHKYQGGGG [HBB_Y146_H147Q]
Second: SSPVLYLSPET [TJP1_Y931_P930L]
The phosphorylation enrichment of the first is higher: 0.491 for the first, 0.469 for the second.

Going from LESTLYESSVV [TRPV4_Y91] to EYITRYIDSLK [PSMA7_Y110_A112D], the phosphorylation enrichment falls from 1.83 to 0.479.

Compared with EEGNPYFSGAR [MCCC2_Y520_S523G_YF], GIVKAYFVRAR [AIPL1_Y267_YF] is lower in phosphorylation enrichment: 1.37 for the first, 0.467 for the second.

First: RETLTYAQAQR [BRD1_Y33]
Second: VRSVDYVLFRS [FAM189B_Y361]
The phosphorylation enrichment of the first is higher: 0.623 for the first, 0.403 for the second.

First: SVVVPYEPPGV [TP53_Y220_E224G]
Second: IKGIRYLHHRG [GUCY2D_Y656]
The phosphorylation enrichment of the first is lower: 0.407 for the first, 0.439 for the second.

Compared with VNKGGYFSVNL [C3orf33_Y164_S160N], GEEIKYTLWLS [OTC_Y55_M56T] is higher in phosphorylation enrichment: 0.398 for the first, 0.443 for the second.

Compared with ILTLKYPIKHG [ACTA1_Y71_E74K], REAAAYPHGRL [AGXT_Y297_L298P] is lower in phosphorylation enrichment: 0.341 for the first, 0.329 for the second.

Going from RMLRKYQELMS [KRT74_Y425_E424K] to FAKSVYWENTL [NUP107_Y296_YF], the phosphorylation enrichment rises from 0.447 to 0.802.

First: SIKDKYVTAFY [KCNH2_Y611_L615F]
Second: QSHKVYFQHLL [POR_Y604_V605F]
The phosphorylation enrichment of the first is lower: 0.383 for the first, 0.663 for the second.

TTPGPHRSIYF [MPG_Y71_Y71H] gave a phosphorylation enrichment of 0.458.

From the supplement of paper PMC10065799, “High-throughput profiling of sequence recognition by tyrosine kinases and SH2 domains using bacterial peptide display” (eLife, 2023)
